From patent US20260224621A1 come the findings set out here.

For test [1], the target named is CD19 on Raji cells, primary CLL cells and melanoma cell lines made to overexpress CD19 (UniProt P15391). As to the kind of experiment: cell-based or functional assay.
For test [2], the target named is CD20 on Raji lymphocyte cells and primary CLL cells (human) (UniProt P11836). As to the kind of experiment: cell-based or functional assay.

Take “anti-CD19 CAR FMC63-28-3z (FMC63 scFV against CD19, CD28 costimulatory domain, CD3zeta signaling domain; Addgene #135991), expressed on YTS cells (from UniProt P10747 180-220; P20963 52-164)”: in test [1], the specific killing of Raji cells 24 hours after coculture, YTS CAR-CD19 cells (non-irradiated, 1000, 2500 or 3000 cGy) is > 55%; the specific killing of Raji cells by YTS cells expressing CAR-CD19 was > 50%; the specific killing of Raji cells, same day (2-3 hours), YTS CAR-CD19 cells irradiated with 1000 cGy came to 25%; the specific killing of Raji cells, same day (2-3 hours), YTS CAR-CD19 cells irradiated with 2500 cGy amounted to 23%. For the same substance, the specific killing of Raji cells, same day (2-3 hours), non-irradiated YTS CAR-CD19 cells in test [1] came out at 18%.
In the case of Rituximab (anti-CD20) (antibody), the specific killing of Raji cells by YTS cells expressing CD16 (ADCC), 3 hours in test [2] is > 60%.
